The data set concerns the target Ku70 (in Ku70/Ku80ΔC);Ku80ΔC (in Ku70/Ku80ΔC) (human;human, UniProt P12956;P13010 1-609;1-590, |). The experiment in a line: EMSA. The note with it: protein: recombinant;recombinant; tags: N-terminal Strep tag II;; copies: 1;1. A general note: In EMSA bound probe runs differently from free probe, usually more slowly.

Consider one molecule from PMC3789764.

Sequence of Ku70 (in Ku70/Ku80ΔC);Ku80ΔC (in Ku70/Ku80ΔC) (P12956 whole entry, stated change not applied, chain 1 of 2): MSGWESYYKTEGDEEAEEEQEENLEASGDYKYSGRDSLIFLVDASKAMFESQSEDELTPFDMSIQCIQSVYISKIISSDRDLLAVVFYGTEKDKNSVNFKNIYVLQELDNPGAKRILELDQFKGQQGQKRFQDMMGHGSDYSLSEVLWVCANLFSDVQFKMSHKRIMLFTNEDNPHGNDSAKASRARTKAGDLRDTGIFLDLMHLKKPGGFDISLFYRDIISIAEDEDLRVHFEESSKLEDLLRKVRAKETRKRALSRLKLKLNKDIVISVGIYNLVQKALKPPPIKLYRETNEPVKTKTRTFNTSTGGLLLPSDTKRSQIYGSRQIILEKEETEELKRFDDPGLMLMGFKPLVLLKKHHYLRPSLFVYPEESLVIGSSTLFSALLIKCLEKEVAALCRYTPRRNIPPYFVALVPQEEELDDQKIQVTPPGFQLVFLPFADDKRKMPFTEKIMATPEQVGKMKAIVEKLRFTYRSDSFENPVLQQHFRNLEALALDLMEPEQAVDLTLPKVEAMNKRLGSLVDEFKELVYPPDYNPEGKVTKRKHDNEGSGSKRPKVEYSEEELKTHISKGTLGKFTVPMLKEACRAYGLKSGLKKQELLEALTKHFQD
Sequence of Ku70 (in Ku70/Ku80ΔC);Ku80ΔC (in Ku70/Ku80ΔC) (P13010 1-590, stated change not applied, chain 2 of 2): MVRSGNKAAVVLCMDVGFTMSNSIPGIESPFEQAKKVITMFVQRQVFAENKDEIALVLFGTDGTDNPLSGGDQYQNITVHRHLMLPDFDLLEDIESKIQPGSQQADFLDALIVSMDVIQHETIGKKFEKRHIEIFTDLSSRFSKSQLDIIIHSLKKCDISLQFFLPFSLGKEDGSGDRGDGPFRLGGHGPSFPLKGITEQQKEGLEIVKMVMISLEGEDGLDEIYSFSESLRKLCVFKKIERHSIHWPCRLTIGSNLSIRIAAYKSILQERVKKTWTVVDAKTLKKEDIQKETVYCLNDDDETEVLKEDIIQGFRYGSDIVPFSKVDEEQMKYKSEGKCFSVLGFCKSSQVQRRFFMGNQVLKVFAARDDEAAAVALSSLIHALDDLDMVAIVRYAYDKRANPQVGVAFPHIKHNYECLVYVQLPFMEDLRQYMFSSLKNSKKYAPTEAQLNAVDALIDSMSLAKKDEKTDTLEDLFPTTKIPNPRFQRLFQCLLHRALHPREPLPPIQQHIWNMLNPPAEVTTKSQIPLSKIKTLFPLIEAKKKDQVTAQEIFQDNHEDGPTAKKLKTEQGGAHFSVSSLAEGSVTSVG

B1: Cy3 19-bp duplex (dsDNA)
DNA 1: GAAAGCTATGGGCGCGGTT
DNA 2: AACCGCGCCCATAGCTTTC
With B1, the binding result is recorded as “binds”.
